Holding throughout (test): cell-based or functional assay
Assay [1] addresses T1, collagenase 1 (UniProt P03956 100-469, limits assumed).
T1 sequence (looked up): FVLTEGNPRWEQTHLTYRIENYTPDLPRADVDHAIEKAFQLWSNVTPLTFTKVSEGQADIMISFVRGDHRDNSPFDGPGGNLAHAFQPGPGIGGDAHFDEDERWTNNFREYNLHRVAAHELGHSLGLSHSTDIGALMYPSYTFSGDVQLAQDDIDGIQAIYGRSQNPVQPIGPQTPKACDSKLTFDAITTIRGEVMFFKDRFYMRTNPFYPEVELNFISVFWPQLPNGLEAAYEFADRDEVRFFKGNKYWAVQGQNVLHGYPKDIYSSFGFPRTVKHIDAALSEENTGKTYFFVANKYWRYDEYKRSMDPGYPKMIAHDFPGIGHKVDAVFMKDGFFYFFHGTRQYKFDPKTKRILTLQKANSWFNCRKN

For assay [2], the target named is T2, human Gelatinase-A (human, UniProt P08253 110-660, limits assumed).
T2 sequence (looked up): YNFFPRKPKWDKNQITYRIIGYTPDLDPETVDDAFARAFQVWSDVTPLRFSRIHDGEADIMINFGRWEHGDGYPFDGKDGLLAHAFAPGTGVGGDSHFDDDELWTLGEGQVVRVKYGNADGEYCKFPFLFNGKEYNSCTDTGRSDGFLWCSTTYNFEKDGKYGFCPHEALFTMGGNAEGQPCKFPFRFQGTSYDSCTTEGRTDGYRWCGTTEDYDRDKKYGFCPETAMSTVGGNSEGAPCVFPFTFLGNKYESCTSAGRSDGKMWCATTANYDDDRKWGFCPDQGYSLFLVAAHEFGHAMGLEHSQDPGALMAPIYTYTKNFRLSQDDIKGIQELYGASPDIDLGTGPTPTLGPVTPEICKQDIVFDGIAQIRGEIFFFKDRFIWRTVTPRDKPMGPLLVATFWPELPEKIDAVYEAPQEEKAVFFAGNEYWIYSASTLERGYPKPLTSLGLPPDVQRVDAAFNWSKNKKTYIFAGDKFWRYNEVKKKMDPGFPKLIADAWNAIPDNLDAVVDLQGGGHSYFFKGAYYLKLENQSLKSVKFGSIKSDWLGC

The target of assay [3] is T3, gelatinase B (UniProt P14780 107-707, limits assumed).
T3 sequence (P14780 107-707 limits assumed): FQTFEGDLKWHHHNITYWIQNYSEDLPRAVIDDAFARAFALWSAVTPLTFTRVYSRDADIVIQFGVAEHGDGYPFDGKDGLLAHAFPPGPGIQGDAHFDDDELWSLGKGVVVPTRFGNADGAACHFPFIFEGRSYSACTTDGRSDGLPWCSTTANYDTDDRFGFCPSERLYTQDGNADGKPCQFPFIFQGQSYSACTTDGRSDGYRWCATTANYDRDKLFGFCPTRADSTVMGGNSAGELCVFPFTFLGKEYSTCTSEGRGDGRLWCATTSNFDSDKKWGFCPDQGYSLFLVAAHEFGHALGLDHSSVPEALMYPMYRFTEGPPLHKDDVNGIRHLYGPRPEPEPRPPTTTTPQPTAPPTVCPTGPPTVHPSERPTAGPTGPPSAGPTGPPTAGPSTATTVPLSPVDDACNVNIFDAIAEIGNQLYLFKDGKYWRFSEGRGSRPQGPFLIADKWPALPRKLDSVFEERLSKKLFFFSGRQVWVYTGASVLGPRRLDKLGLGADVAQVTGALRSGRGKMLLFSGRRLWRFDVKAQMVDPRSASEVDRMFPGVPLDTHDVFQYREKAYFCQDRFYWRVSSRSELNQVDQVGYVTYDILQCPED
For assay [4], the target named is T1, collagenase 1. The source holds these as a separate data set.
For assay [5], the target named is T4, stromelysin 1 (UniProt P08254 100-477, limits assumed).
T4 sequence (P08254 100-477 limits assumed): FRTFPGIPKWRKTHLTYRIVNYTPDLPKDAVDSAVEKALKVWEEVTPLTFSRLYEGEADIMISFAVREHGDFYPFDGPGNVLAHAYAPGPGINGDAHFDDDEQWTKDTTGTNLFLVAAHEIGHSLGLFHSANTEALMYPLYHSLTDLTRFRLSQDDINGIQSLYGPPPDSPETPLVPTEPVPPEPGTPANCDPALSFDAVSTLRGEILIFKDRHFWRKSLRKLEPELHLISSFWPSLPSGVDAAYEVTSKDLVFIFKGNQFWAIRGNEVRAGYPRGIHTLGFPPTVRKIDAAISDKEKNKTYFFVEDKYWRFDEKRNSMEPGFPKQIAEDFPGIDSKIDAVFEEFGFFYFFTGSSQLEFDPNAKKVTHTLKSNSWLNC
The next assay has as its target human Collagenase-3 (human, UniProt P45452 104-471, limits assumed).
The target of assay [6] is T2, human Gelatinase-A. This is another data set of the same source.
Assay [7] deals with T3, gelatinase B. This is another data set of the same source.
The target of assay [8] is T1, collagenase 1. The source holds these as a separate data set.
For assay [9], the target named is T4, stromelysin 1. This is another data set of the same source.

Primed or numbered codes have the meaning given here. The star is where a group is joined. Dabcyl′ = CN(C)c1ccc(/N=N/c2ccc(C(=O)*)cc2)cc1; fluorescein = fluorescein label

Consider {Dabcyl′}-GPLGMRGC(fluorescein)-NH2 [Dabcyl-GPLGMRGC(Fluorescein)-NH2], for which the “selectivity towards Col-3” value in the assay with collagenase 1 [1] turned out to be 215 fold. Moreover, the “Selectivity v Col-3, + Gel” value in the assay with human Gelatinase-A [2] stood at 25.8 unitless; in the assay with gelatinase B [3] it was 6.3 unitless; with collagenase 1 [4], 78.4 unitless; in the assay with stromelysin 1 [5], 769 unitless.

Regarding {Dabcyl′}-GPVNLHGC(fluorescein)-NH2 [Dabcyl-GPVNLHGC(Flu)-NH2], in the assay with human Collagenase-3, the “increase in specificity with type II collagen” value is 2.5 fold. In the assay with human Gelatinase-A [2], the “Selectivity v Col-3” value worked out at 2.3 unitless and the “Selectivity v Col-3, + Gel” value came to 26.5 unitless. Also, in the assay with gelatinase B [3], the “Selectivity v Col-3” value was found to be 0.7 unitless and the “Selectivity v Col-3, + Gel” value is 6 unitless. Also, in the assay with collagenase 1 [4], the “Selectivity v Col-3” value turned out to be 128 unitless and the “Selectivity v Col-3, + Gel” value amounted to 92.3 unitless. In addition, in the assay with stromelysin 1 [5], the “Selectivity v Col-3” value amounted to 71.3 unitless and the “Selectivity v Col-3, + Gel” value came out at 72.5 unitless. In the assay with human Gelatinase-A [6], the “Improvement In Selectivity for 44 ug/ml Type II Collagen vs no Type II Collagen” value came to 80 fold; the “Selectivity v Col-3, + 1.6 ug/ml TIICol” value worked out at 9.3 unitless; the “Selectivity v Col-3, + 4.9 ug/ml TIICol” value was determined as 26.3 unitless; the “Selectivity v Col-3, + 15 ug/ml TIICol” value turned out to be 75.9 unitless. In addition, in the assay with human Gelatinase-A [6], the “Selectivity v Col-3, + 44 ug/ml TIICol” value is 465 unitless; the “Selectivity v Col-3, + .18 ug/ml TIICol” value stood at 7.7 unitless; the “Selectivity v Col-3, + .55 ug/ml TIICol” value was 9.9 unitless; the “Selectivity v Col-3, no TIICol” value came out at 5.8 unitless. In the assay with gelatinase B [7], the “Improvement In Selectivity for 44 ug/ml Type II Collagen vs no Type II Collagen” value was determined as 46 fold; the “Selectivity v Col-3, + 1.6 ug/ml TIICol” value stood at 3 unitless; the “Selectivity v Col-3, + 4.9 ug/ml TIICol” value is 5.7 unitless; the “Selectivity v Col-3, + 15 ug/ml TIICol” value was 15.2 unitless. Besides, in the assay with gelatinase B [7], the “Selectivity v Col-3, + 44 ug/ml TIICol” value was determined as 58.8 unitless; the “Selectivity v Col-3, + .18 ug/ml TIICol” value amounted to 1.8 unitless; the “Selectivity v Col-3, + .55 ug/ml TIICol” value was 2.2 unitless; the “Selectivity v Col-3, no TIICol” value is 1.3 unitless. Besides, in the assay with collagenase 1 [8], the “Improvement In Selectivity for 44 ug/ml Type II Collagen vs no Type II Collagen” value was 2.5 fold; the “Selectivity v Col-3, + 1.6 ug/ml TIICol” value stood at 227 unitless; the “Selectivity v Col-3, + 4.9 ug/ml TIICol” value came out at 265 unitless; the “Selectivity v Col-3, + 15 ug/ml TIICol” value was 355 unitless. Besides, in the assay with collagenase 1 [8], the “Selectivity v Col-3, + 44 ug/ml TIICol” value was 424 unitless; the “Selectivity v Col-3, + .18 ug/ml TIICol” value amounted to 190 unitless; the “Selectivity v Col-3, + .55 ug/ml TIICol” value was found to be 221 unitless; the “Selectivity v Col-3, no TIICol” value stood at 166 unitless. In the assay with stromelysin 1 [9], the “Improvement In Selectivity for 44 ug/ml Type II Collagen vs no Type II Collagen” value was 2.5 fold; the “Selectivity v Col-3, + 1.6 ug/ml TIICol” value was determined as 389 unitless; the “Selectivity v Col-3, + 4.9 ug/ml TIICol” value was 335 unitless; the “Selectivity v Col-3, + 15 ug/ml TIICol” value was 447 unitless. Also, in the assay with stromelysin 1 [9], the “Selectivity v Col-3, + 44 ug/ml TIICol” value worked out at 476 unitless; the “Selectivity v Col-3, + .18 ug/ml TIICol” value is 263 unitless; the “Selectivity v Col-3, + .55 ug/ml TIICol” value is 281 unitless; the “Selectivity v Col-3, no TIICol” value amounted to 192 unitless.
